To fix the notation:
B1: phospho-p27 peptide NAGSVEQT*PKKPGLRRRQT (peptide)
peptide: NAGSVEQ[pT]PKKPGLRRRQT
notes: Coupled to Sepharose beads; 19 C-terminal residues of p27; also called phospho-T187 p27 peptide; p27 phosphopeptide

The target in one experiment is T1, human F-box protein FBP1 (human, UniProt Q9Y297 1-605).
T1 sequence: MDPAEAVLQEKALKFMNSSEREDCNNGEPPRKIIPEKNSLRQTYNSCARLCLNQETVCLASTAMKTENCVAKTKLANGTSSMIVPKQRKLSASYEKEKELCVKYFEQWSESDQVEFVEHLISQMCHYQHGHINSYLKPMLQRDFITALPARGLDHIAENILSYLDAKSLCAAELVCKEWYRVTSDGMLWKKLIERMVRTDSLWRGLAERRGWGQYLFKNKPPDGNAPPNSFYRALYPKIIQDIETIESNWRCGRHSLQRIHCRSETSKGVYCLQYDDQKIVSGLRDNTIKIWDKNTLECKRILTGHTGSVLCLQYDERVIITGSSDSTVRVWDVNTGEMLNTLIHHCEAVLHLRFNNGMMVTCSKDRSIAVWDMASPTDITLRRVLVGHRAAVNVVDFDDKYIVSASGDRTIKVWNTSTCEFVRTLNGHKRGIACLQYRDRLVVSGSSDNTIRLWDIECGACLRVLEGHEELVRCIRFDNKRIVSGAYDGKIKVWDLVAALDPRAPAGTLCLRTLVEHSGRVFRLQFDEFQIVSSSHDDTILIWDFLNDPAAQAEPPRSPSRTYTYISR
The experiment is described as follows: in vitro translated 35S-FBP on phospho-p27 peptide Sepharose beads, RIPA wash, autoradiography. On the procedure:
(§1) FIG. 37A-C. […] Beads were washed with RIPA buffer and bound proteins were eluted and subjected to electrophoresis and autoradiography (Upper Panel). Bottom Panel: 10% of the in vitro translated [35S]FBP inputs. […] Beads were washed with RIPA buffer and bound proteins were immunoblotted with antibodies to the proteins indicated on the left of each panel. A portion of the HeLa extract (25 μg) was used as a control (lane 4). […] C. […] Beads were washed with RIPA buffer and bound proteins subjected to electrophoresis and autoradiography.

The target in the next experiment is T2, human F-box protein FBP2 (human, UniProt Q9UKT8 1-419, limits assumed).
T2 sequence: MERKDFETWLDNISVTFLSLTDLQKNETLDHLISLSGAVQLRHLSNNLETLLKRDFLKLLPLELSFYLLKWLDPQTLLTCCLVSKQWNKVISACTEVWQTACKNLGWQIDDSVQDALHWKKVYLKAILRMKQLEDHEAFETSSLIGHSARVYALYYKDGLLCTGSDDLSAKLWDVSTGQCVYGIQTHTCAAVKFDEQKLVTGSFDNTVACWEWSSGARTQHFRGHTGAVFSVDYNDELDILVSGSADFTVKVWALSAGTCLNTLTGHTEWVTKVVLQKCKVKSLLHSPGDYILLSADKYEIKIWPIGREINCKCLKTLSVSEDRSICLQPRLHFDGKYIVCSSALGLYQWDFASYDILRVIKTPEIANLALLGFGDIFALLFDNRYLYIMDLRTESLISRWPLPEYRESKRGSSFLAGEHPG
Described as above. The procedure:
as §1

The target of experiment [1] is T3, human F-box protein FBP3a (human, UniProt Q9UKT7 1-428).
T3 sequence: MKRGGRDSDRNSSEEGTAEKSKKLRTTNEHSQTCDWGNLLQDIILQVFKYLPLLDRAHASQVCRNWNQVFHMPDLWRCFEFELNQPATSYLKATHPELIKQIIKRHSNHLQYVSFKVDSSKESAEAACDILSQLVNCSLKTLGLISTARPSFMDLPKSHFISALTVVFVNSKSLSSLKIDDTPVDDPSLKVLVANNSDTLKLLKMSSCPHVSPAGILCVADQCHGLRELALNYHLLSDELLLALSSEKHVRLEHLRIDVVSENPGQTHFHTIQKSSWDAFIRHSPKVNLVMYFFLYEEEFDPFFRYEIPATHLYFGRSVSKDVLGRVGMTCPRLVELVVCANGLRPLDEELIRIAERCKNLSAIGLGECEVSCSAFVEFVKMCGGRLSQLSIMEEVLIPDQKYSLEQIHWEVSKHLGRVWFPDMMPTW
The description is as above. On the procedure:
as §1

The next experiment addresses T4, human F-box protein FBP5 (human, UniProt Q9UKT4 1-447).
T4 construct: Gal4 AD fusion in the two-hybrid screen; the clone appeared to be full length
T4 sequence: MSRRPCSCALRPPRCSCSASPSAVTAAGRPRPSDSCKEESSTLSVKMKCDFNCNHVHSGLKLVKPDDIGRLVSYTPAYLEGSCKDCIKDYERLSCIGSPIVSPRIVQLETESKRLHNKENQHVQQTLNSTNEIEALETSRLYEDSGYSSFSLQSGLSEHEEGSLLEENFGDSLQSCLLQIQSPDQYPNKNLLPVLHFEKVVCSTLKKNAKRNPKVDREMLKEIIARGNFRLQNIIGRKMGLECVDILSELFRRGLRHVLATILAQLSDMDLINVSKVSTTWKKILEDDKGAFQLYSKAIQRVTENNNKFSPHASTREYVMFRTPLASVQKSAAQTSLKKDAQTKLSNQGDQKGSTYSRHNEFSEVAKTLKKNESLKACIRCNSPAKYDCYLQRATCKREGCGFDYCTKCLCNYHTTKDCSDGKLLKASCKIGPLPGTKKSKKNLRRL
The description is as above. On the procedure: as §1

The next experiment deals with T5, human Cul1 (endogenous) (human, UniProt Q13616 1-776).
T5 construct: A slower migrating form is said to be likely modified by a ubiquitin-like molecule
T5 sequence (Q13616 whole entry): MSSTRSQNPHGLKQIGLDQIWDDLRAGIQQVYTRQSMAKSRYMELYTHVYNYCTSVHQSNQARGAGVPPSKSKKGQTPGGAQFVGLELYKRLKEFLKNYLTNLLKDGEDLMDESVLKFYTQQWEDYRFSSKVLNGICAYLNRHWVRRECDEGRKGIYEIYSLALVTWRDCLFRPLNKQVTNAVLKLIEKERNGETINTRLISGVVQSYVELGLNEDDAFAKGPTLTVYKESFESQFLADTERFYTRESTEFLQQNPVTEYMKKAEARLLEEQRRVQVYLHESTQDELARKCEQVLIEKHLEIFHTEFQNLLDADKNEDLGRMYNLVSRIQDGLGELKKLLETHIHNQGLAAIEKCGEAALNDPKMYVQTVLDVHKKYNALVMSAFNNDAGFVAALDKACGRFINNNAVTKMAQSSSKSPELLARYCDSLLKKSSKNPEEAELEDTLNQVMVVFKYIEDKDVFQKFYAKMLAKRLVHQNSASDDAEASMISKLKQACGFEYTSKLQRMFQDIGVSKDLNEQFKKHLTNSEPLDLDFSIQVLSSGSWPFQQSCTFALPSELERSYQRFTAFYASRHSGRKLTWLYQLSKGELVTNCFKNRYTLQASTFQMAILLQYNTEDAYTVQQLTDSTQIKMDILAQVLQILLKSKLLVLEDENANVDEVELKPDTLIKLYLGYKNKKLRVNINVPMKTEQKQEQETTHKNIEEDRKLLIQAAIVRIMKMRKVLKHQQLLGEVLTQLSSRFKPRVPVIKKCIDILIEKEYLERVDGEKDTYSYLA
The experiment is described as follows: anti-Flag co-immunoprecipitation from transfected HeLa cells, anti-Cul1 immunoblot. The source says: (§2) HeLa cells were transfected with mammalian expression plasmids encoding Flag-tagged versions of FBP1 (lane 1), (ΔF)FBP1 (lane 2), FBP4 (lane 3), FBP7 (lane 5), FBP2 (lane 7), (ΔF)FBP2 (lane 8), FBP3a (lane 9), (ΔF)FBP3a (lane 10), or with an empty vector (lanes 4 and 6). Cells were lysed and extracts were subjected to immunoprecipitation with a rabbit anti-Flag antibody (lanes 1-8). Immunoprecipitates were then immunoblotted with a mouse anti-Cul1 monoclonal antibody, a rabbit anti-Skp1 polyclonal antibody or a rabbit anti-Cul2 polyclonal antibody, as indicated. The last lane contains 25 μg of extracts from non-transfected HeLa cells; […] contains recombinant Cul1, Skp1, or Cul2 proteins used as markers.
In general terms: In western blotting, separated proteins are transferred to a membrane and probed.

In the next experiment the target is human Cul2 (endogenous) (human, UniProt Q13617 1-745, limits assumed). The experiment is described as follows: anti-Flag co-immunoprecipitation from transfected HeLa cells, anti-Cul2 immunoblot.
human Cul2 (endogenous), sequence (Q13617 whole entry): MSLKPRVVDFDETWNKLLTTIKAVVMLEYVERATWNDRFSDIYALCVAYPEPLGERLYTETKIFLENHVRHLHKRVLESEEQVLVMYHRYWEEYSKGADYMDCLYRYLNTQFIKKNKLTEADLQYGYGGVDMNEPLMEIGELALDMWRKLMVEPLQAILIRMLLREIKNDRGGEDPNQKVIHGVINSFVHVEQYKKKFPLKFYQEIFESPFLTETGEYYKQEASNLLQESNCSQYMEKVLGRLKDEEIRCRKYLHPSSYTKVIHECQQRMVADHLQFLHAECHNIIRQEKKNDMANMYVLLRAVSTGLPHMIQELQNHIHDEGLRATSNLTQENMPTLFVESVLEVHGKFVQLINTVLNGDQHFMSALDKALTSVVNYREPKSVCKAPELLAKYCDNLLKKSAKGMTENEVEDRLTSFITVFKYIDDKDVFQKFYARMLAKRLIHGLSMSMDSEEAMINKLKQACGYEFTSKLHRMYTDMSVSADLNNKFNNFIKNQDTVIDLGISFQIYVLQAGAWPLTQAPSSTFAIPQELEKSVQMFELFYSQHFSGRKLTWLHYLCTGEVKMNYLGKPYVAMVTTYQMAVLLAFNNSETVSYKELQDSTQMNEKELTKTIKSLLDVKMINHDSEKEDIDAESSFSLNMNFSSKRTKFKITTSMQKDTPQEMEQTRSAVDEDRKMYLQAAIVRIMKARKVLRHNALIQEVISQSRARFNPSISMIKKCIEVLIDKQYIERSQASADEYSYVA
From the text: as §2

The target in the next experiment is His-tagged Elongin C (human, UniProt Q15369 1-112). The experiment is described as follows: pull-down of in vitro translated 35S-FBP on His-Elongin C Nickel-agarose beads. The procedure: FIG. 29. FBPs interact specifically with Skp1 through their F-box. The cDNAs of FBPs (wild type and mutants) were transcribed and translated in vitro (IVT) in the presence of 35S- methionine. […] Bound IVT proteins were analyzed by SDS-PAGE and autoradiography. The arrows on the left side of the panels point to the indicated FBPs. The apparent molecular weights of the protein standards are indicated on the right side of the panels.
His-tagged Elongin C, sequence (Q15369 whole entry): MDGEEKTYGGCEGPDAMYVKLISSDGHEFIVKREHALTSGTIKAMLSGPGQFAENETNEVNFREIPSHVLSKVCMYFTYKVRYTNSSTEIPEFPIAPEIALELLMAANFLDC
As examples of the human FBP family, a more detailed characterization of some FBPs was performed. To confirm the specificity of interaction between the novel FBPs and human Skp1, eight in vitro translated FBPs were tested for binding to His-tagged-Skp1 pre-bound to Nickel-agarose beads. As a control Elongin C was used, the only known human Skp1 homolog.

Experiment [2] concerns the target B1. Description: in vitro translated 35S-FBP on phospho-p27 peptide Sepharose beads, RIPA wash, autoradiography. The procedure: as §1

Six molecules from patent publication US20020123082A1 (NEW YORK UNIVERSITY, published 2002) can be followed below.

Non-standard residues stand in square brackets, D forms with d. No end group written: not given here. pT = C[C@@H](OP(=O)(O)O)[C@H](N)C(=O)O

On to B1, for which the binding result (with human F-box protein FBP1; with human F-box protein FBP2; in experiment [1]; with human F-box protein FBP5) was “no binding” each time.

B2: Flag-tagged (ΔF)FBP1 (other, not shown: small tags and cut ends)
chain: MDPAEAVLQEKALKFMNSSEREDCNNGEPPRYRVTSDGMLWKKLIERMVRTDSLWRGLAERRGWGQYLFKNKPPDGNAPPNSFYRALYPKIIQDIETIESNWRCGRHSLQRIHCRSETSKGVYCLQYDDQKIVSGLRDNTIKIWDKNTLECKRILTGHTGSVLCLQYDERVIITGSSDSTVRVWDVNTGEMLNTLIHHCEAVLHLRFNNGMMVTCSKDRSIAVWDMASPTDITLRRVLVGHRAAVNVVDFDDKYIVSASGDRTIKVWNTSTCEFVRTLNGHKRGIACLQYRDRLVVSGSSDNTIRLWDIECGACLRVLEGHEELVRCIRFDNKRIVSGAYDGKIKVWDLVAALDPRAPAGTLCLRTLVEHSGRVFRLQFDEFQIVSSSHDDTILIWDFLNDPAAQAEPPRSPSRTYTYISR
notes: pcDNA3 construct, Flag tag at the C-terminus; also called Flag-tagged (deltaF)FBP1
As for B2, the binding result with human Cul1 (endogenous) is given as “no binding”.

B3: Flag-tagged (ΔF)FBP3a (other, not shown: small tags and cut ends)
chain: MKRGGRDSDRNSSEEGTAEKSKKLRTTNEHSQTCDWGNLRCFEFELNQPATSYLKATHPELIKQIIKRHSNHLQYVSFKVDSSKESAEAACDILSQLVNCSLKTLGLISTARPSFMDLPKSHFISALTVVFVNSKSLSSLKIDDTPVDDPSLKVLVANNSDTLKLLKMSSCPHVSPAGILCVADQCHGLRELALNYHLLSDELLLALSSEKHVRLEHLRIDVVSENPGQTHFHTIQKSSWDAFIRHSPKVNLVMYFFLYEEEFDPFFRYEIPATHLYFGRSVSKDVLGRVGMTCPRLVELVVCANGLRPLDEELIRIAERCKNLSAIGLGECEVSCSAFVEFVKMCGGRLSQLSIMEEVLIPDQKYSLEQIHWEVSKHLGRVWFPDMMPTW
notes: pcDNA3 construct, Flag tag at the C-terminus; also called Flag-tagged (deltaF)FBP3a
Consider B3, for which the binding result with human Cul1 (endogenous) was “no binding”.

B4: Flag-tagged FBP7 (other, not shown: small tags and cut ends)
chain: MSNTRFTITLNYKDPLTGDEETLASYGIVSGDLICLILHDDIPPPNIPSSTDSEHSSLQNNEQPSLATSSNQTSIQDEQPSDSFQGQAAQSGVWNDDSMLGPSQNFEAESIQDNAHMAEGTGFYPSEPLLCSESVEGQVPHSLETLYQSADCSDANDALIVLIHLLMLESGYIPQGTEAKALSLPEKWKLSGVYKLQYMHHLCEGSSATLTCVPLGNLIVVNATLKINNEIRSVKRLQLLPESFICKEKLGENVANIYKDLQKLSRLFKDQLVYPLLAFTRQALNLPNVFGLVVLPLELKLRIFRLLDVRSVLSLSAVCRDLFTASNDPLLWRFLYLRDFRDNTVRVQDTDWKELYRKRHIQRKESPKGRFVLLLPSSTHTIPFYPNPLHPRPFPSSRLPPGIIGGEYDQRPTLPYVGDPISSLIPGPGETPSQLPPLRPRFDPVGPLPGPNPILPGRGGPNDRFPFRPSRGRPTDGRLSFM
notes: Expressed in HeLa cells
Consider B4, for which, in the experiment with human Cul2 (endogenous), the binding result is given as “no binding”.

B5: human F-box protein FBP7 (other)
chain: MSNTRFTITLNYKDPLTGDEETLASYGIVSGDLICLILHDDIPPPNIPSSTDSEHSSLQNNEQPSLATSSNQTSIQDEQPSDSFQGQAAQSGVWNDDSMLGPSQNFEAESIQDNAHMAEGTGFYPSEPLLCSESVEGQVPHSLETLYQSADCSDANDALIVLIHLLMLESGYIPQGTEAKALSLPEKWKLSGVYKLQYMHHLCEGSSATLTCVPLGNLIVVNATLKINNEIRSVKRLQLLPESFICKEKLGENVANIYKDLQKLSRLFKDQLVYPLLAFTRQALNLPNVFGLVVLPLELKLRIFRLLDVRSVLSLSAVCRDLFTASNDPLLWRFLYLRDFRDNTVRVQDTDWKELYRKRHIQRKESPKGRFVLLLPSSTHTIPFYPNPLHPRPFPSSRLPPGIIGGEYDQRPTLPYVGDPISSLIPGPGETPSQLPPLRPRFDPVGPLPGPNPILPGRGGPNDRFPFRPSRGRPTDGRLSFM
Consider B5, for which the binding result (in the experiment with His-tagged Elongin C; in experiment [2]) was “no binding” throughout.

B6: Flag-tagged (ΔF)FBP2 (other, not shown: small tags and cut ends)
chain: MERKDFETWLDNISVTFLSLTDLQKNETLDHLISLSGAVQLRHLSNNLETLLKRDFLKLCKNLGWQIDDSVQDALHWKKVYLKAILRMKQLEDHEAFETSSLIGHSARVYALYYKDGLLCTGSDDLSAKLWDVSTGQCVYGIQTHTCAAVKFDEQKLVTGSFDNTVACWEWSSGARTQHFRGHTGAVFSVDYNDELDILVSGSADFTVKVWALSAGTCLNTLTGHTEWVTKVVLQKCKVKSLLHSPGDYILLSADKYEIKIWPIGREINCKCLKTLSVSEDRSICLQPRLHFDGKYIVCSSALGLYQWDFASYDILRVIKTPEIANLALLGFGDIFALLFDNRYLYIMDLRTESLISRWPLPEYRESKRGSSFLAGEHPG
notes: pcDNA3 construct, Flag tag at the C-terminus; also called Flag-tagged (deltaF)FBP2
B6: the binding result with human Cul1 (endogenous) is on record as “no binding”.
